Results: publication doi:10.1101/207928

Target: glycosylated full-length human insulin receptor isoform A (human) (UniProt P06213)
Assay: negative-stain electron microscopy

stoichiometry N: 2
Substance: glycosylated full-length human insulin receptor isoform A (from UniProt P06213-2 28-1370)
